Test results as given in PMC9517163 (2022).

Molecular target: SARS-CoV-2 receptor-binding domain (RBD), prototype (SARS-CoV-2, UniProt P0DTC2)
Experiment: SPR

Row | Binder | Kd [nM]
1 | dolphin ACE2, mFc-tagged (Fc fusion) QSATEERAKTFLQKFDREAEDLSYQSSLASWNYNTNITDENVQKMNAAGAKWSAFYEEQSRIAKTYPLEEIRNLTLKRQLQVLQQSGTSVLSADKSKRLNAILSTMSTIYSSGKVLDPNTQESLVLEPGLDDIMENSKDYNRRLWAWEGWRAEVGKQLRPLYEEYVVLENEMARANNYEDYGDYWRGDYEVTGAGDYDYSRDQLIRDVERTFAEIKPLYEQLHAYVRAKLMDAYPSRISPTGCLPAHLLGDMWGRFWTNLYPLTVPFGERPSIDVTKEMQNQSWDAKRIFKEAEKFFVSIGLPNMTQGFWDNSMLTEPGDGRKVVCHPTAWDLGKGDFRIKMCTKVTMDDFLTAHHEMGHIQYDMAYATQPYLFRNGANEGFHEAVGEIMSLSAATPHYLKALGLLPPDFYEDSATEINFLLKQALTIVGTLPFTYMLEKWRWMVFKGEIPKEQWMQKWWEMKREIVGVVEPLPHDETYCDPACLFHVAEDYSFIRYYTRTIYQFQFHEALCQTAKHEGPLYKCDISNSTEAGQRLLQMLHLGKSEPWTSALERIVGVKTMDVKPLLNYFEPLLTWLKGQNRNSFVGWRTDWTPYSNQSIKVRISLKSALGEKAYEWNDNEMYLFRSSVAYAMREYFSKVRNKTIPFGEKDVWVSDLKPRISFNFFVTSPKNMSDIIPRTEVEEAIRMSRGRINDAFRLDDSSLEFLGVQPTLAPPYEPPVT | 562
2 | fur seal ACE2, mFc-tagged (Fc fusion) RSTTEDLVKTFLEKFNSEAEELSYQSSFASWNYNTNITDENVQKMNDAGAKWSAFYEEQSKQAKTYPLEEIQDSTVKRQLQALQHSGSSVLSVDKSQRLNTILNAMSTIYSTGKACNPNNPQECLLLEPGLDDIMANSRDYNERLWAWEGWRSEVGKQLRPLYEEYVALKNEMARANNYEDYGDYWRGDYEEEWTNGYNYSRDQLIKDVEQTFTQIQPLYEHLHAYVRAKLMDTYPSHISPTGCLPAHLLGDMWGRFWTNLYPLTVPFGQKPNIDVTDTMVNQSWDARRIFEEAEKFFVSVGLPNMTQGFWENSMLTEPGDSRKVVCHPTAWDLGKHDFRIKMCTKVTMDDFLTAHHEMGHIQYDMAYAAQPFLLRNGANEGFHEAVGEIMSLSAATPKHLKNIGLLPPGFSEDNETDINFLFKQALTIVGTLPFTYMLEKWRWMVFKGEIPKEQWMKKWWEMKRDLVGVVEPLPHDETYCDPASLFHVANDYSFIRYYTRTIYQFQFQEALCQIAKHEGPLHKCDISNSSEAGQTLLQMLKLGRSKPWTLALYRVVGAKNMDVRPLLNYFDPLFTWLKEQNRNSFVGWNTDWSPYADQSIKVRISLKSALGEKAYEWNDNEMYLFRSSIAYAMREYFSKVKKQTIPFVEDNVWVNNLKPRISFTFFVTSPGNMSDIIPRADVEEAIRMSRGRINDAFRLDDNSLEFLGIQPTLEPPYQPPVT | 129
3 | sea lion ACE2, mFc-tagged (Fc fusion) RSTTEDLVKTFLEKFNSEAEELSYQSSLASWNYNTNITDENVQKMNDAGAKWSAFYEEQSKQAKTYPLEEIQDSTVKRQLQALQHSGSSVLSADKSQRLNTILNAMSTIYSTGKACNPNNPQECLLLEPGLDDIMANSRDYNERLWAWEGWRSEVGKQLRPLYEEYVALKNEMARANNYEDYGDYWRGDYEEEWTNGYNYSRDQLIKDVEQTFTQIQPLYEHLHAYVRAKLMDTYPSHMSPTGCLPAHLLGDMWGRFWTNLYPLTVPFGQKPNIDVTDTMVNQSWDARRIFEEAEKFFVSVGLPNMTQGFWENSMLTEPGDSRKVVCHPTAWDLGKHDFRIKMCTKVTMDDFLTAHHEMGHIQYDMAYAAQPFLLRNGANEGFHEAVGEIMSLSAATPKHLKNIGLLPPGFSEDNETDINFLFKQALTIVGTLPFTYMLEKWRWMVFKGEIPKEQWMKKWWEMKRDLVGVVEPLPHDETYCDPASLFHVANDYSFIRYYTRTIYQFQFQEALCQIAKHEGPLHKCDISNSSEAGQTLLQMLKLGRSKPWTLALYRVVGAKNMDVRPLLNYFDPLFTWLKEQNRNSFVGWNTDWSPYADQSIKVRISLKSALGEKAYEWNDNEMYLFRSSIAYAMREYFSKVKNQMIPFVEDNVWVNNLKPRISFTFFVTSPGNMSDIIPRADVEEAIRMSRGRINDAFRLDDNSLEFLGIQPTLEPPYQPPVT | 171
4 | sperm whale ACE2, mFc-tagged (Fc fusion) QSTTEEQAKTFLQKFDHEAEDLSYQSSLASWNYNTNITDENVQKMNAARAKWSAFYEEQSRTAKTYPLEEIQNLTLKRQLQALQQSGTSVLSADKSKRLNTILNTMSTIYSSGKVLDPNTQECLVLEPGLDDIMENSEDYSRRLWAWEAWRAEVGKQLRPLYEEYVVLENEMARANNYEDYGDYWRGDYEVTGAGDYDYSRDQLITDVERTFAEIKPLYEQLHAYVRAKLMDAYPSRISPTGCLPAHLLGDMWGRFWTNLYPLTVPFGEKSSIDVTKEMRNQSWDAKRIFKEAEKFFVSIGLPNMTQEFWDNSMLTEPGDGRKVVCHPTAWDLGKGDFRIKMCTKVTMDDFLTARHEMGHIQYDMAYATQPYLLRNGANEGFHEAVGEIMSLSAATPHYLKALGLLPPDFYEDSATEINFLLKQALKIVGTLPFTYMLEKWRWMVFKGEIPKEQWMQKWWEMKREIVGVVEPLPHDETYCDPACLFHVAEDYSFIRYYTRTIYQFQFHEALCQAAKHEGPLYKCDISNSTEAGQRLLQMLHLGKSEPWTSALENIVGVKTMDVKPLLNYFEPLLTWLKDQNRNSFVGWSTDWTPYSDQSIKVRISLKSALGEKAYEWNDNEMYLFRSSVAYAMREYFSKVRNETIPFGEEDVRVGDLKPRISFTFFVTSPKNVSDIIPRTEVEEAIRMSRGRINDAFRLDDNSLEFLGIEPTLGPPYEPPVT | 234
5 | minke whale ACE2, mFc-tagged (Fc fusion) QSTTEEQAKTFLQKFDHEAEDLSYRSSLASWNYNTNITDENVQKMNAARAKWSAFYEEQSRIAKTYPLEEIQNLTLKRQLQALQQSGTSVLSADKSKRLNTILNTMSTIYSSGKVLDPNTQEYLVLEPGLDDIMENSEDYNRRLWAWEGWRAEVGKQLRPFYEEYVVLENEMARANNYEDYGDYWRGDYEVTGADGYDYSRNQLIADVERTFAEIKPLYEQLHAYVRAKLMDAYPSRISPTGCLPAHLLGDMWGRFWTNLYPLTVPFGEKPSIDVTKEMQNQSWDAKRIFKEAEKFFVSIGLPNMTQEFWVNSMLTEPGDGRKVVCHPTAWDLGKGDFRIKMCTKVTMDDFLTAHHEMGHIQYDMAYATQPFLLRNGANEGFHEAVGEIMSLSAATPHYLKALGLLPPDFYEDNVTEINFLLKQALQIVGTLPFTYMLEKWRWMVFKGEIPKEQWMQKWWEMKREIVGVVEPLPHDETYCDPACLFHVAEDYSFIRYYTRTIYQFQFHEALCQTAKHEGPLYKCDISNSTEAGQRLLQMLHLGKSEPWTLALENIVGVKTMDVKPLLNYFEPLLTWLKEQNRNSPVGWSTDWTPYSDQSIKVRISLKSALGEKAYEWNDNEMYLFQSSVAYAMREYFSKVRNETIPFGEKDVWVSDLKPRISFNFFVTTPKNVSDIIPRTEVEEAIRMSRGRINDAFRLDDNSLEFLGIQPTLGPPYEPPVT | 175
